The values that follow come from patent US20230295310A1 (ABCELLERA BIOLOGICS, published 2023).

This experiment concerns the target human EGFR, C-terminal eGFP-tagged, on CHO-K1 cells (human, UniProt P00533 25-1210). Put plainly: cell-based or functional assay.

B1: GOMP001_bsAb_023 (bispecific antibody, human IgG1, kappa, L234A L235A)
heavy 1: QVQLVQSGAEVKKPGASVKVSCKASGYTFTSHWMHWVRKAPGQGLEWIGEFNPSNGRTNYNEEFKSKATMTVDTSTNTAYMELSSLRSEDTAVYYCASRDYDYDGRYFDYWGQGTLVTVSSASTKGPSVFPLAPSSKSTSGGTAALGCLVADYFPEPVTVSWNSGALTSGVHTFPAVLQSSGLYSLSSVVTVPSSSLGTQTYICNVNHKPSNTKVDEKVEPKSCDKTHTCPPCPAPEAAGGPSVFLFPPKPKDTLMISRTPEVTCVVVDVSHEDPEVKFNWYVDGVEVHNAKTKPREEQYNSTYRVVSVLTVLHQDWLNGKEYKCKVSNKALPAPIEKTISKAKGQPREPQVYTLPPSREEMTDNQVSLTCLVKGFYPSDIAVEWESNGQPENNYKTTPPVLMSDGSFFLASKLTVDKSRWQQGNVFSCSVMHEALHNHYTQKSLSLSPG
light 1: RIQMTQSPSSLSASVGDRVTITCSASSSVTYMYWYQDKPGKAPKLLIYDTSNLASGVPSRFSGSGSGTDYTFTISSLQPEDIATYYCQQWSSHIFTFGQGTKVEIKRTVAAPSVFIFPPSDKQLKSGTARVVCLLNNFYPREAKVQWKVDNALQSGNSQESVTEQDSKDSTYSLSSTLTLSKADYEKHKVYACEVTHQGLSSPVTKSFNRGEC
heavy 2: QGQLVESGGGVVQPGRSLRLSCEASGFTFRSYGMHWVRYPPGKGLEWVAIIWYDGGKKYYGDRVKGRFTISRDNPKNTLYLQMNSLRPEDTAVYYCMAYDYSNGFDIWGRGTMVTVSSASTKGPSVFPLAPSSKSTSGGTAALGCLVKDYFPEPVTVSWNSGALTSGVHTFPAVLQSSGLYSLSSVVTVPSSSLGTQTYICNVNHKPSNTKVDKKVEPKSCDKTHTCPPCPAPEAAGGPSVFLFPPKPKDTLMISRTPEVTCVVVDVSHEDPEVKFNWYVDGVEVHNAKTKPREEQYNSTYRVVSVLTVLHQDWLNGKEYKCKVSNKALPAPIEKTISKAKGQPRRPRVYTLPPSREEMTKNQVSLVCLVKGFYPSDIAVEWESNGQPENNYKTTPPVLDSDGSFFLYSVLTVDKSRWQQGNVFSCSVMHEALHNHYTQKSLSLSPG
light 2: DIVMTQTPLSSPVTLGQPASISCRSSQSFVHSDGSTYLSWLQRRPGDPPRLLIYKISNRFSGVPDRFSGRGAGTDFTLKISRVEAEDVGIYYCMQNTQFPYTFGQGTKLEIKRTVAAPSVFIFPPSDEQLKSGTASVVCLLNNFYPREAKVQWKVDNALQSGNSQESVTEQDSKDSTYSLSSTLTLSKADYEKHKVYACEVTHQGLSSPVTKSFNRGEC
In the case of B1, the “EC50 CHO-K1 EGFR Low (nM); T cell activation bioassay, luciferase” value (“EC50 CHO-K1 EGFR Low (nM)” for short) was 8.34 nM and the “EC50 CHO-K1 EGFR Med (nM); T cell activation bioassay, luciferase” value (“EC50 CHO-K1 EGFR Med (nM)” for short) worked out at 1.71 nM.

B2: GOMP001_bsAb_029 (bispecific antibody, human IgG1, kappa, L234A L235A)
heavy 1: QVQLVQSGAEVKKPGASVKVSCKASGYTFTSHWMHWVRKAPGQGLEWIGEFNPSNGRTNYNEEFKSKATMTVDTSTNTAYMELSSLRSEDTAVYYCASRDYDYDGRYFDYWGQGTLVTVSSASTKGPSVFPLAPSSKSTSGGTAALGCLVADYFPEPVTVSWNSGALTSGVHTFPAVLQSSGLYSLSSVVTVPSSSLGTQTYICNVNHKPSNTKVDEKVEPKSCDKTHTCPPCPAPEAAGGPSVFLFPPKPKDTLMISRTPEVTCVVVDVSHEDPEVKFNWYVDGVEVHNAKTKPREEQYNSTYRVVSVLTVLHQDWLNGKEYKCKVSNKALPAPIEKTISKAKGQPREPQVYTLPPSREEMTDNQVSLTCLVKGFYPSDIAVEWESNGQPENNYKTTPPVLMSDGSFFLASKLTVDKSRWQQGNVFSCSVMHEALHNHYTQKSLSLSPG
light 1: RIQMTQSPSSLSASVGDRVTITCSASSSVTYMYWYQDKPGKAPKLLIYDTSNLASGVPSRFSGSGSGTDYTFTISSLQPEDIATYYCQQWSSHIFTFGQGTKVEIKRTVAAPSVFIFPPSDKQLKSGTARVVCLLNNFYPREAKVQWKVDNALQSGNSQESVTEQDSKDSTYSLSSTLTLSKADYEKHKVYACEVTHQGLSSPVTKSFNRGEC
heavy 2: QVQLVQSGAEVKKPGASVKVSCKASGYTVTGYYMHWVRYAPGQGLEWMGWINPNSGGTNFAQRFQGRVTMTRDTSISTFYMDLNRLRSDDTAVYYCARGGAPVSYWFFDLWGRGTLVTVSSASTKGPSVFPLAPSSKSTSGGTAALGCLVKDYFPEPVTVSWNSGALTSGVHTFPAVLQSSGLYSLSSVVTVPSSSLGTQTYICNVNHKPSNTKVDKKVEPKSCDKTHTCPPCPAPEAAGGPSVFLFPPKPKDTLMISRTPEVTCVVVDVSHEDPEVKFNWYVDGVEVHNAKTKPREEQYNSTYRVVSVLTVLHQDWLNGKEYKCKVSNKALPAPIEKTISKAKGQPRRPRVYTLPPSREEMTKNQVSLVCLVKGFYPSDIAVEWESNGQPENNYKTTPPVLDSDGSFFLYSVLTVDKSRWQQGNVFSCSVMHEALHNHYTQKSLSLSPG
light 2: DIQMTQSPSSLSASVGDRVTITCRASQSISRYLNWYQRKPGDAPKVLIYNTSSLKSGVPSRFSGSGSGTDFTLTISSLQPEDFGTFYCQQSHSTPFTFGPGTKVDIKRTVAAPSVFIFPPSDEQLKSGTASVVCLLNNFYPREAKVQWKVDNALQSGNSQESVTEQDSKDSTYSLSSTLTLSKADYEKHKVYACEVTHQGLSSPVTKSFNRGEC
On to B2, for which the “EC50 CHO-K1 EGFR Low (nM)” value is 0.271 nM and the “EC50 CHO-K1 EGFR Med (nM)” value was 0.0226 nM.

B3: GOMP001_bsAb_024 (bispecific antibody, human IgG1, kappa, L234A L235A)
heavy 1: QGQLVESGGGVVQPGRSLRLSCEASGFTFRSYGMHWVRYPPGKGLEWVAIIWYDGGKKYYGDRVKGRFTISRDNPKNTLYLQMNSLRPEDTAVYYCMAYDYSNGFDIWGRGTMVTVSSASTKGPSVFPLAPSSKSTSGGTAALGCLVKDYFPEPVTVSWNSGALTSGVHTFPAVLQSSGLYSLSSVVTVPSSSLGTQTYICNVNHKPSNTKVDKKVEPKSCDKTHTCPPCPAPEAAGGPSVFLFPPKPKDTLMISRTPEVTCVVVDVSHEDPEVKFNWYVDGVEVHNAKTKPREEQYNSTYRVVSVLTVLHQDWLNGKEYKCKVSNKALPAPIEKTISKAKGQPRRPRVYTLPPSREEMTKNQVSLVCLVKGFYPSDIAVEWESNGQPENNYKTTPPVLDSDGSFFLYSVLTVDKSRWQQGNVFSCSVMHEALHNHYTQKSLSLSPG
light 1: DIVMTQTPLSSPVTLGQPASISCRSSQSFVHSDGSTYLSWLQRRPGDPPRLLIYKISNRFSGVPDRFSGRGAGTDFTLKISRVEAEDVGIYYCMQNTQFPYTFGQGTKLEIKRTVAAPSVFIFPPSDEQLKSGTASVVCLLNNFYPREAKVQWKVDNALQSGNSQESVTEQDSKDSTYSLSSTLTLSKADYEKHKVYACEVTHQGLSSPVTKSFNRGEC
heavy 2: QVQLVQSGAEVKKPGASVKVSCKASGYTFTSHWMHWVRYAPGQGLEWIGEFNPSNGRTNYNEKFKSKATMTVDTSTNTAYMELSSLRSEDTAVYYCASRDYDYDGRYFDYWGRGTLVTVSSASTKGPSVFPLAPSSKSTSGGTAALGCLVKDYFPEPVTVSWNSGALTSGVHTFPAVLQSSGLYSLSSVVTVPSSSLGTQTYICNVNHKPSNTKVDKKVEPKSCDKTHTCPPCPAPEAAGGPSVFLFPPKPKDTLMISRTPEVTCVVVDVSHEDPEVKFNWYVDGVEVHNAKTKPREEQYNSTYRVVSVLTVLHQDWLNGKEYKCKVSNKALPAPIEKTISKAKGQPRRPRVYTLPPSREEMTKNQVSLVCLVKGFYPSDIAVEWESNGQPENNYKTTPPVLDSDGSFFLYSVLTVDKSRWQQGNVFSCSVMHEALHNHYTQKSLSLSPG
light 2: DIQMTQSPSSLSASVGDRVTITCSASSSVTYMYWYQRKPGDAPKLLIYDTSNLASGVPSRFSGSGSGTDYTFTISSLQPEDIATYYCQQWSSHIFTFGQGTKVEIKRTVAAPSVFIFPPSDEQLKSGTASVVCLLNNFYPREAKVQWKVDNALQSGNSQESVTEQDSKDSTYSLSSTLTLSKADYEKHKVYACEVTHQGLSSPVTKSFNRGEC
As to B3, the “EC50 CHO-K1 EGFR Low (nM)” value was found to be 0.245 nM and the “EC50 CHO-K1 EGFR Med (nM)” value stood at 0.122 nM.

B4: GOMP001_bsAb_030 (bispecific antibody, human IgG1, kappa, L234A L235A)
heavy 1: QVQLVQSGAEVKKPGASVKVSCKASGYTVTGYYMHWVRYAPGQGLEWMGWINPNSGGTNFAQRFQGRVTMTRDTSISTFYMDLNRLRSDDTAVYYCARGGAPVSYWFFDLWGRGTLVTVSSASTKGPSVFPLAPSSKSTSGGTAALGCLVKDYFPEPVTVSWNSGALTSGVHTFPAVLQSSGLYSLSSVVTVPSSSLGTQTYICNVNHKPSNTKVDKKVEPKSCDKTHTCPPCPAPEAAGGPSVFLFPPKPKDTLMISRTPEVTCVVVDVSHEDPEVKFNWYVDGVEVHNAKTKPREEQYNSTYRVVSVLTVLHQDWLNGKEYKCKVSNKALPAPIEKTISKAKGQPRRPRVYTLPPSREEMTKNQVSLVCLVKGFYPSDIAVEWESNGQPENNYKTTPPVLDSDGSFFLYSVLTVDKSRWQQGNVFSCSVMHEALHNHYTQKSLSLSPG
light 1: DIQMTQSPSSLSASVGDRVTITCRASQSISRYLNWYQRKPGDAPKVLIYNTSSLKSGVPSRFSGSGSGTDFTLTISSLQPEDFGTFYCQQSHSTPFTFGPGTKVDIKRTVAAPSVFIFPPSDEQLKSGTASVVCLLNNFYPREAKVQWKVDNALQSGNSQESVTEQDSKDSTYSLSSTLTLSKADYEKHKVYACEVTHQGLSSPVTKSFNRGEC
heavy 2: QVQLVQSGAEVKKPGASVKVSCKASGYTFTSHWMHWVRYAPGQGLEWIGEFNPSNGRTNYNEKFKSKATMTVDTSTNTAYMELSSLRSEDTAVYYCASRDYDYDGRYFDYWGRGTLVTVSSASTKGPSVFPLAPSSKSTSGGTAALGCLVKDYFPEPVTVSWNSGALTSGVHTFPAVLQSSGLYSLSSVVTVPSSSLGTQTYICNVNHKPSNTKVDKKVEPKSCDKTHTCPPCPAPEAAGGPSVFLFPPKPKDTLMISRTPEVTCVVVDVSHEDPEVKFNWYVDGVEVHNAKTKPREEQYNSTYRVVSVLTVLHQDWLNGKEYKCKVSNKALPAPIEKTISKAKGQPRRPRVYTLPPSREEMTKNQVSLVCLVKGFYPSDIAVEWESNGQPENNYKTTPPVLDSDGSFFLYSVLTVDKSRWQQGNVFSCSVMHEALHNHYTQKSLSLSPG
light 2: DIQMTQSPSSLSASVGDRVTITCSASSSVTYMYWYQRKPGDAPKLLIYDTSNLASGVPSRFSGSGSGTDYTFTISSLQPEDIATYYCQQWSSHIFTFGQGTKVEIKRTVAAPSVFIFPPSDEQLKSGTASVVCLLNNFYPREAKVQWKVDNALQSGNSQESVTEQDSKDSTYSLSSTLTLSKADYEKHKVYACEVTHQGLSSPVTKSFNRGEC
As for B4, the “EC50 CHO-K1 EGFR Low (nM)” value was 0.0644 nM and the “EC50 CHO-K1 EGFR Med (nM)” value is 0.00272 nM.
